Patent US20180355059A1 (PHARMAEXPLORER, published 2018)

The binders below were run against T1, recombinant human PCSK9-His protein (Immunogen A) (human, UniProt Q8NBP7 31-692, limits assumed, biotinylated in the ELISA assays) (assay: SPR, Biacore;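 also: antibodies captured via immobilized anti-human Fc IgG on a CM5 chip, PCSK9 as analyte in HBS-EP+ buffer, 400 s dissociation, reference flow cell subtracted, 1:1 binding model fit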).
T1 construct: also called hPCSK9-His; His-tagged hPCSK9; not shown: His tag

Kd | koff | kon | Binder
360 pM | 0.000115 s⁻¹ | 320000 M⁻¹ s⁻¹ | AF-mab023_01 (antibody, V domains shown) VH: EVQLVESGGGLVQPGGSLRLSCAASGITFSSYWMSWVRQAPGKGLEWVANIKQDGSEKYYVDSVKGRFTISRDIAKNSLYLQMNSLRAEDTAVYYCARDRGTYYYGIGSYNYYYYGMDVWGQGTTVTVSS VL: not shown
310 pM | 0.000109 s⁻¹ | 351000 M⁻¹ s⁻¹ | AF-mab023_17 (antibody, V domains shown) VH: EVQLVESGGGLVQPGGSLRLSCAASGITFSSYWMSWVRQAPGKGLEWVANIKQDGSEKYYVDSVKGRFTISRDIAKNSLYLQMNSLRAEDTAVYYCARDRGTYYTGMGEYNYYYYGMDVWGQGTTVTVSS VL: not shown
1550 pM | 0.000351 s⁻¹ | 226000 M⁻¹ s⁻¹ | AF-mab023_19 (antibody, V domains shown) VH: EVQLVESGGGLVQPGGSLRLSCAASGITFSSYWMSWVRQAPGKGLEWVANIKQDGSEKYYVDSVKGRFTISRDIAKNSLYLQMNSLRAEDTAVYYCARDRGTYYYASGKYNYYYYGMDVWGQGTTVTVSS VL: not shown
292 pM | 0.000161 s⁻¹ | 551000 M⁻¹ s⁻¹ | AF-mab023_18 (antibody, V domains shown) VH: EVQLVESGGGLVQPGGSLRLSCAASGITFSSYWMSWVRQAPGKGLEWVANIKQDGSEKYYVDSVKGRFTISRDIAKNSLYLQMNSLRAEDTAVYYCARDRGTYYYADGDYNYYYYGMDVWGQGTTVTVSS VL: not shown
381 pM | 0.000182 s⁻¹ | 477000 M⁻¹ s⁻¹ | AF-mab023_15 (antibody, V domains shown) VH: EVQLVESGGGLVQPGGSLRLSCAASGITFSSYWMSWVRQAPGKGLEWVANIKQDGSEKYYVDSVKGRFTISRDIAKNSLYLQMNSLRAEDTAVYYCARDRGTYYYQDGNYNYYYYGMDVWGQGTTVTVSS VL: not shown
1050 pM | 0.000328 s⁻¹ | 313000 M⁻¹ s⁻¹ | AF-mab023_10 (antibody, V domains shown) VH: EVQLVESGGGLVQPGGSLRLSCAASGITFSSYWMSWVRQAPGKGLEWVANIKQDGSEKYYVDSVKGRFTISRDIAKNSLYLQMNSLRAEDTAVYYCARDRGTYYYDSGRYNYYYYGMDVWGQGTTVTVSS VL: not shown
1240 pM | 0.00046 s⁻¹ | 370000 M⁻¹ s⁻¹ | AF-mab023_03 (antibody, V domains shown) VH: EVQLVESGGGLVQPGGSLRLSCAASGITFSSYWMSWVRQAPGKGLEWVANIKQDGSEKYYVDSVKGRFTISRDIAKNSLYLQMNSLRAEDTAVYYCARDRGTYYYASGSYNYYYYGMDVWGQGTTVTVSS VL: not shown
409 pM | 0.000239 s⁻¹ | 584000 M⁻¹ s⁻¹ | AF-mab023_04 (antibody, V domains shown) VH: EVQLVESGGGLVQPGGSLRLSCAASGITFSSYWMSWVRQAPGKGLEWVANIKQDGSEKYYVDSVKGRFTISRDIAKNSLYLQMNSLRAEDTAVYYCARDRGTYYYDSGGYNYYYYGMDVWGQGTTVTVSS VL: not shown
176 pM | 8.47e-05 s⁻¹ | 480000 M⁻¹ s⁻¹ | AF-mab023_12 (antibody, V domains shown) VH: EVQLVESGGGLVQPGGSLRLSCAASGITFSSYWMSWVRQAPGKGLEWVANIKQDGSEKYYVDSVKGRFTISRDIAKNSLYLQMNSLRAEDTAVYYCARDRGTYYYTEGGYNYYYYGMDVWGQGTTVTVSS VL: not shown
306 pM | 0.000164 s⁻¹ | 534000 M⁻¹ s⁻¹ | AF-mab023_14 (antibody, V domains shown) VH: EVQLVESGGGLVQPGGSLRLSCAASGITFSSYWMSWVRQAPGKGLEWVANIKQDGSEKYYVDSVKGRFTISRDIAKNSLYLQMNSLRAEDTAVYYCARDRGTYYYADGGYNYYYYGMDVWGQGTTVTVSS VL: not shown
268 pM | 8.2e-05 s⁻¹ | 306000 M⁻¹ s⁻¹ | AF-mab023_02 (antibody, V domains shown) VH: EVQLVESGGGLVQPGGSLRLSCAASGITFSSYWMSWVRQAPGKGLEWVANIKQDGSEKYYVDSVKGRFTISRDIAKNSLYLQMNSLRAEDTAVYYCARDRGTYYYWLGTYNYYYYGMDVWGQGTTVTVSS VL: not shown
260 pM | 0.000144 s⁻¹ | 553000 M⁻¹ s⁻¹ | AF-mab023_11 (antibody, V domains shown) VH: EVQLVESGGGLVQPGGSLRLSCAASGITFSSYWMSWVRQAPGKGLEWVANIKQDGSEKYYVDSVKGRFTISRDIAKNSLYLQMNSLRAEDTAVYYCARDRGTYYYQEGSYNYYYYGMDVWGQGTTVTVSS VL: not shown
653 pM | 0.000214 s⁻¹ | 327000 M⁻¹ s⁻¹ | AF-mab023_07 (antibody, V domains shown) VH: EVQLVESGGGLVQPGGSLRLSCAASGITFSSYWMSWVRQAPGKGLEWVANIKQDGSEKYYVDSVKGRFTISRDIAKNSLYLQMNSLRAEDTAVYYCARDRGTYYYQQGSYNYYYYGMDVWGQGTTVTVSS VL: not shown
443 pM | 0.000158 s⁻¹ | 357000 M⁻¹ s⁻¹ | AF-mab023_08 (antibody, V domains shown) VH: EVQLVESGGGLVQPGGSLRLSCAASGITFSSYWMSWVRQAPGKGLEWVANIKQDGSEKYYVDSVKGRFTISRDIAKNSLYLQMNSLRAEDTAVYYCARDRGTYYIADGSYNYYYYGMDVWGQGTTVTVSS VL: not shown
447 pM | 0.000143 s⁻¹ | 319000 M⁻¹ s⁻¹ | AF-mab023_16 (antibody, V domains shown) VH: EVQLVESGGGLVQPGGSLRLSCAASGITFSSYWMSWVRQAPGKGLEWVANIKQDGSEKYYVDSVKGRFTISRDIAKNSLYLQMNSLRAEDTAVYYCARDRGTYYYQDGKYNYYYYGMDVWGQGTTVTVSS VL: not shown
207 pM | 6.31e-05 s⁻¹ | 305000 M⁻¹ s⁻¹ | AF-mab023_05 (antibody, V domains shown) VH: EVQLVESGGGLVQPGGSLRLSCAASGITFSSYWMSWVRQAPGKGLEWVANIKQDGSEKYYVDSVKGRFTISRDIAKNSLYLQMNSLRAEDTAVYYCARDRGTYYHWLGSYNYYYYGMDVWGQGTTVTVSS VL: not shown
225 pM | 6.59e-05 s⁻¹ | 293000 M⁻¹ s⁻¹ | AF-mab023_06 (antibody, V domains shown) VH: EVQLVESGGGLVQPGGSLRLSCAASGITFSSYWMSWVRQAPGKGLEWVANIKQDGSEKYYVDSVKGRFTISRDIAKNSLYLQMNSLRAEDTAVYYCARDRGTYYFQSGSYNYYYYGMDVWGQGTTVTVSS VL: not shown
392 pM | 0.000178 s⁻¹ | 455000 M⁻¹ s⁻¹ | AF-mab023_13 (antibody, V domains shown) VH: EVQLVESGGGLVQPGGSLRLSCAASGITFSSYWMSWVRQAPGKGLEWVANIKQDGSEKYYVDSVKGRFTISRDIAKNSLYLQMNSLRAEDTAVYYCARDRGTYYYTEGSYNYYYYGMDVWGQGTTVTVSS VL: not shown
